These are literature values, as cited in PMC10293842 (Proceedings of the National Academy of Sciences of the …, 2023).

The test system of this data set is Omicron BA.1 and BA.2.

B1: Adintrevimab (antibody, chains of the INN, looked up, V domains shown)
VH: EVQLVESGGGLVKPGGSLRLSCAASGFTFSSYYMNWVRQAPGKGLEWVSSISEDGYSTYYPDSLKGRFTISRDSAKNSLYLQMNSLRADDTAVYYCARDFSGHTAWAGTGFEYWGQGTLVTVSS
VL: QSVLTQPPSVSGAPGQRITISCTGSSSNIGAGYDVHWYQQLPGTAPKLLIYGSSSRNSGVPDRFSGSKSGTSASLAITGLQAEDEADYYCQSYDSSLSVLYTFGTGTKVTVL
As for B1, the decrease in activity was 20 fold.
